Measured values reported in publication doi:10.1101/2022.07.07.499247.
Read-outs that look alike come from different tables or passages of the source.

How the values were obtained:
[1] = molecular target: recombinant alpha tubulin of Plasmodium falciparum (Plasmodium falciparum); assay: MST
[2] = molecular target: recombinant alpha tubulin of Plasmodium falciparum (Plasmodium falciparum); assay: MST; remark: listed apart in the source

B1: recombinant Plasmodium falciparum cold shock protein PfCoSP (PF3D7_0109600) (natural protein)
chain: MLRRKIHIHFNSYKKHFFSQLINKEKHDKITGNVIMFDKRKGYGFIKPNDGGPDIFVHYTDICQSRTFEVTNEEKKKLAWNANMDITQKKEEYNFEYDNNNNNNNNKHNKKKEEIKKEFKYLVPGERVKFSVIYDEKSNSSKAINVDYID
Kd [1]: 210 nM | Kd [2]: 274 nM
